Results from article PMC6692503, “Short- and Long-Term Effects of UVA on Arabidopsis Are Mediated by a Novel cGMP Phosphodiesterase” (Current Biology, 2019).

Substrate: [H][C@@]12COP(=O)(O)O[C@@]1([H])[C@@H](O)[C@H](n1cnc3c(=O)[nH]c(N)nc31)O2
Experiment: phosphodiesterase assay kit (Biomol Green phosphate detection), Michaelis-Menten plot
Assay type: biochemical, Arabidopsis thaliana
Details: 25 °C, 60 min, GST fusion, Figure 3 legend prints 0.2587 μM, substrate of the plot not named in the legend

B1: CN-PDE1 (AtCN-PDE1, PDE1, AtPDE1) (Arabidopsis thaliana) (protein)
chain: MAAKTMRKAEELVEKAMKGNDASHDAWHVWRVRDLALSIAREEGLSSNSDSMEIVELAALLHDIGDYKYIRDPSEEKLVENFLDDEGIEETKKTKILTIINGMGFKDELAGVALCESLPEFGVVQDADRLDAIGAIGIARCFTFGGSRNRVLHDPEIKPRTELTKEQYIKREEQTTINHFHEKLLKLKKLMKTEAGKRRAEKRHKFMEEYLKEFYEEWDGST
  Km: 0.259 µM
